Laboratory results from US20120277281A1, “POLYNUCLEOTIDES FOR MEDICAL USE” (MAX-DELBRÜCK-CENTRUM FÜR MOLEKULARE MEDIZIN, priority 2009, published 2012).

Tests used:
[1] = system: L540Cy cells; experiment: [3H]-thymidine incorporation in L540Cy cells; assay type: cell-based, human; conditions: 1% FCS, 48 h
Protocol: FIG. 3. HRS cells depend on CSF1R activity. (A) L540Cy cells were left untreated (−) or treated with the indicated amounts rhCSF-1 (closed bars) or the respective control (open bars) under serum reduced conditions (1% FCS). After 48 hours, cells were pulsed with 1 μCi [^3H]-thymidine per well for a further 20 hours, and [^3H]-thymidine incorporation was determined cpm, counts per minute. Data are represented as mean±SD. (3A) [^3H]-thymidine incorporation in L540Cy cells left untreated (−) or treated with the indicated amounts of rhCSF-1 (black bars) or water control (open bars) under serum-reduced conditions (1% FCS) determined after 48 h. Data are represented as means±s.d. […] After 24 hours, cells were pulsed with [^3H]-thymidine incorporation and analyzed as described in (A). […] CSF1R tyrosine phosphorylation was analyzed as described in FIG. 1F. […]
DNA synthesis was determined by [^3H]-thymidine incorporation assays using standard protocols. The percentage of viable and apoptotic cells was determined by annexin V-FITC/propidium iodide (PI) double-staining (Bender MedSystems) and subsequent FACS analysis.
We determined DNA synthesis by [^3H]-thymidine incorporation assays using standard protocols. In case of L540Cy cells (FIG. 1d), after 48 hours, cells were pulsed with 1 μCi [^3H]-thymidine per well for a further 20 hours, and [^3H]-thymidine incorporation was determined. […]

[2] = biological target: T1, CSF1R (Homo sapiens, UniProt P07333); experiment: CSF1R tyrosine phosphorylation in L540Cy cells (CSF1R IP, p-Tyr western blot); assay type: cell-based; conditions: L540Cy cells stimulated with rhCSF-1
T1 construct: endogenous in cells; host or cells: L540Cy (Hodgkin/Reed-Sternberg cell line)
T1 sequence (P07333 20-972): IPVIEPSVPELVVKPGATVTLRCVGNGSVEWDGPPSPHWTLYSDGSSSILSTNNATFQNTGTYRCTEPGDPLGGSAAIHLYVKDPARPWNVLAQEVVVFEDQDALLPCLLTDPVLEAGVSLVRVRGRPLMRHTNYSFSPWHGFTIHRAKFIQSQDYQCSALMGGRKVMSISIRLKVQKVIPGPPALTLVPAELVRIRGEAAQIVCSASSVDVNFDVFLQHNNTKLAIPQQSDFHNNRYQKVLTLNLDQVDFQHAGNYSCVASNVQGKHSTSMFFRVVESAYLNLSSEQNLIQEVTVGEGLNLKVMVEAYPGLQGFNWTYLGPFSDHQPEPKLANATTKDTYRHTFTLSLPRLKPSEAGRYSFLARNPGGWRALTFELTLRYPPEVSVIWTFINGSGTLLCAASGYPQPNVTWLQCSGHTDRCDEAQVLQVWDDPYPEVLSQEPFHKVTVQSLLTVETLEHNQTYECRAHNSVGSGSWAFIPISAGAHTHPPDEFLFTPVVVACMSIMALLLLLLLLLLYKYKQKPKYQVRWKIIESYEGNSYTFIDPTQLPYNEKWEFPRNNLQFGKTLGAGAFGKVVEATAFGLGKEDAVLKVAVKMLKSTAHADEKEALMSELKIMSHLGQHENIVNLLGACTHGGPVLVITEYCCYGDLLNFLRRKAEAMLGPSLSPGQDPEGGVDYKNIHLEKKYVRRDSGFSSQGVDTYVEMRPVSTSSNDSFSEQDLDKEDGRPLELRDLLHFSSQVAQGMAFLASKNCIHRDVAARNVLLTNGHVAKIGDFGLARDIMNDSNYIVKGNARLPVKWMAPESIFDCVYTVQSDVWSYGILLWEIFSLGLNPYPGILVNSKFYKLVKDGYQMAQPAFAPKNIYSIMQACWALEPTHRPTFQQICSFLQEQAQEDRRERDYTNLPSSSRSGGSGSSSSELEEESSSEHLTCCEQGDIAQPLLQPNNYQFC
Protocol: FIG. 1. Lineage-inappropriate expression of functional CSF1R and CSF-1 in Hodgkin lymphoma cells. Analysis of CSF1R and CSF-1 protein expression and of CSF1R:Fc functionality. (A) Analysis of CSF1R and CSF1 mRNA expression by RT-PCR in Hodgkin and non-Hodgkin cell lines. Expression of GAPDH was analyzed as a control. (1a) Analysis of CSF1R and CSF1 mRNA expression by RT-PCR in Hodgkin's and non-Hodgkin's cell lines. GAPDH expression was analyzed as a control. One representative of four independent experiments is shown. (B, C) Analysis of CSF1R (B) and CSF-1 (C) protein expression in various cell lines by extracellular and intracellular flow cytometry, respectively. IC, isotype control. (D) Supernatants of various cell lines were analyzed by a CSF-1-specific ELISA. […] CSF1R tyrosine phosphorylation was detected by WB with an antibody recognizing phospho-tyrosine (p-Tyr; upper panel). […] CSF1R tyrosine phosphorylation was detected by western blotting with an antibody recognizing phosphotyrosine (p-Tyr; top). […]
FIG. 3. […] After 48 hours, cells were pulsed with 1 μCi [^3H]-thymidine per well for a further 20 hours, and [^3H]-thymidine incorporation was determined cpm, counts per minute. […] (3A) [^3H]-thymidine incorporation in L540Cy cells left untreated (−) or treated with the indicated amounts of rhCSF-1 (black bars) or water control (open bars) under serum-reduced conditions (1% FCS) determined after 48 h. […]

B1: rhCSF-1: recombinant human CSF-1 (216-MC, R&D Systems) (protein)
chain: EEVSEYCSHMIGSGHLQSLQRLIDSQMETSCQITFEFVDQEQLKDPVCYLKKAFLLVQDIMEDTMRFRDNTPNAIAIVQLQELSLRLKSCFTKDYEEHDKACVRTFYETPLQLLEKVKNVFNETKNLLDKDWNIFSKNCNNSFAECSSQDVVTKPDCN
- proliferation ([3H]-thymidine incorporation) [1]: induced proliferation in a dose-dependent manner
- CSF1R tyrosine phosphorylation following stimulation [2]: rapid increase
